From patent publication US20200239543A1 (ALX ONCOLOGY, published 2020)

Columns and labels:
human CD47 [1] = target: T1, human CD47 (human, UniProt Q08722 19-139); assay: SPR (Biacore T100 and ProteOn XPR36)
T1 construct: extracellular domain; also called CD47 ECD

[2] = target: T2, EGFR-ECD (epidermal growth factor receptor extracellular domain produced in HEK293 cells) (UniProt P00533 25-645, limits assumed); assay: SPR (Proteon GLC chip), EGFR-ECD injected in the second injection over construct A bound to immobilised CD47
T2 construct: extracellular domain

human CD47 [3] = target: T1, human CD47; assay: SPR (Proteon GLC chip), CD47 immobilised by amine coupling, construct injected as analyte in the first injection (100 nM per paragraph 377)
[4] = target: T2, EGFR-ECD (epidermal growth factor …); assay: SPR (Proteon GLC chip), EGFR-ECD injected in the second injection over construct B bound to immobilised CD47
[5] = target: T2, EGFR-ECD (epidermal growth factor …); assay: SPR (Proteon GLC chip), EGFR-ECD injected in the second injection over construct C bound to immobilised CD47

T1 sequence (Q08722 19-139 limits assumed): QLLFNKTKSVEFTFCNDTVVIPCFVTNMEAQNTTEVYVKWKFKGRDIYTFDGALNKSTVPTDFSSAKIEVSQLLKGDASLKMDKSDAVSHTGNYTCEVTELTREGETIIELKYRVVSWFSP

Kd (human CD47 [1])	binding result [2]	binding result (human CD47 [3])	binding result [4]	binding result [5]	Binder
0.139 nM	no binding	–	–	–	SIRP-α-Fc fusion, homodimer of SEQ ID NO: 136 (Fc fusion) EEELQIIQPDKSVLVAAGETATLRCTITSLFPVGPIQWFRGAGPGRELIYNQREGPFPRVTTVSDTTKRNNMDFSIRIGAITPADAGTYYCVKFRKGSPDDVEFKSGAGTELSVRAKPSDKTHTCPPCPAPEAAGAPSVFLFPPKPKDTLMISRTPEVTCVVVDVSHEDPEVKFNWYVDGVEVHNAKTKPREEQYASTYRVVSVLTVLHQDWLNGKEYKCKVSNKALPAPIEKTISKAKGQPREPQVYTLPPSREEMTKNQVSLTCLVKGFYPSDIAVEWESNGQPENNYKTTPPVLDSDGSFFLYSKLTVDKSRWQQGNVFSCSVMHEALHNHYTQKSLSLSPG
–	–	binds	no binding	–	single-arm SIRP-α-Fc fusion, heterodimer of SEQ ID NO: 139 (an Fc variant) and SEQ ID NO: 142 (a SIRP-α-Fc fusion) (Fc fusion, knob and hole heterodimer) chain 1: EEELQIIQPDKSVLVAAGETATLRCTITSLFPVGPIQWFRGAGPGRELIYNQREGPFPRVTTVSDTTKRNNMDFSIRIGAITPADAGTYYCVKFRKGSPDDVEFKSGAGTELSVRAKPSDKTHTCPPCPAPEAAGAPSVFLFPPKPKDTLMISRTPEVTCVVVDVSHEDPEVKFNWYVDGVEVHNAKTKPREEQYASTYRVVSVLTVLHQDWLNGKEYKCKVSNKALPAPIEKTISKAKGQPREPQVYTLPPSREEMTKNQVSLWCLVKGFYPSDIAVEWESNGQPENNYKTTPPVLDSDGSFFLYSKLTVDKSRWQQGNVFSCSVMHEALHNHYTQKSLSLSPGK chain 2: DKTHTCPPCPAPEAAGAPSVFLFPPKPKDTLMISRTPEVTCVVVDVSHEDPEVKFNWYVDGVEVHNAKTKPREEQYASTYRVVSVLTVLHQDWLNGKEYKCKVSNKALPAPIEKTISKAKGQPREPQVYTLPPSREEMTKNQVSLSCAVKGFYPSDIAVEWESNGQPENNYKTTPPVLDSDGSFFLVSKLTVDKSRWQQGNVFSCSVMHEALHNHYTQKSLSLSPGK
–	–	binds	–	no binding	single-arm SIRP-α-Fc fusion, heterodimer of SEQ ID NO: 139 (an Fc variant) and SEQ ID NO: 138 (a SIRP-α Fc fusion) (Fc fusion, knob and hole heterodimer) chain 1: EEELQIIQPDKSVLVAAGETATLRCTITSLFPVGPIQWFRGAGPGRVLIYNQRQGPFPRVTTVSDTTKRNNMDFSIRIGAITPADAGTYYCIKFRKGSPDDVEFKSGAGTELSVRAKPSDKTHTCPPCPAPEAAGAPSVFLFPPKPKDTLMISRTPEVTCVVVDVSHEDPEVKFNWYVDGVEVHNAKTKPREEQYASTYRVVSVLTVLHQDWLNGKEYKCKVSNKALPAPIEKTISKAKGQPREPQVYTLPPSREEMTKNQVSLWCLVKGFYPSDIAVEWESNGQPENNYKTTPPVLDSDGSFFLYSKLTVDKSRWQQGNVFSCSVMHEALHNHYTQKSLSLSPGK chain 2: DKTHTCPPCPAPEAAGAPSVFLFPPKPKDTLMISRTPEVTCVVVDVSHEDPEVKFNWYVDGVEVHNAKTKPREEQYASTYRVVSVLTVLHQDWLNGKEYKCKVSNKALPAPIEKTISKAKGQPREPQVYTLPPSREEMTKNQVSLSCAVKGFYPSDIAVEWESNGQPENNYKTTPPVLDSDGSFFLVSKLTVDKSRWQQGNVFSCSVMHEALHNHYTQKSLSLSPGK
